From PMC9706920, “Aryloxypropanolamine targets amyloid aggregates and reverses Alzheimer-like phenotypes in Alzheimer mouse models” (Alzheimer's Research & Therapy, 2022)

B1: Aβ(16–21) fragment KLVFFA with a cysteine residue at the C-terminal (peptide)
chain: KLVFFAC
modifications: C-terminal cysteine coupled to the maleimide-activated microplate
notes: amyloid-β residues 16-21; numbers count on: the Aβ peptide; cysteine residue at the C-terminal, told in words, for immobilisation; source: synthetic peptide (Fmoc solid phase peptide synthesis)
B2: Aβ(32–37) fragment IGLMVG with a cysteine residue at the C-terminal (peptide)
chain: IGLMVGC
modifications: C-terminal cysteine coupled to the maleimide-activated microplate
notes: amyloid-β residues 32-37; numbers count on: the Aβ peptide; cysteine residue at the C-terminal, told in words, for immobilisation; source: synthetic peptide (Fmoc solid phase peptide synthesis)

Target: T1, Flamma 552-conjugated Aβ(1–42) (Flamma 552 dye conjugated (position not given))
T1 construct: numbers count on: the Aβ peptide; also called Flamma 552-labeled Aβ(1–42); monomeric Aβ(1–42) labeled with fluorescent dye Flamma 552
Assay: peptide or protein array; Aβ hexapeptides and full-length Aβ(1–42), each with a C-terminal cysteine, immobilised on maleimide-activated microplates (50 μg/mL, binding buffer 0.1 M sodium phosphate, 0.15 M NaCl, 10 mM EDTA, pH 7.2); Flamma 552-Aβ(1–42) 10 μM in deionized water (10% DMSO), 37°C, 2 h; fluorescence 555/580 nm as baseline before YIAD002
Conditions: both partners purified

| Binder | binding result |
| --- | --- |
| B1 | binds |
| B2 | binds |
